Experiments:
Suc-βAla-Leu-Ala-Leu-Dox = target: T1, Suc-βAla-Leu-Ala-Leu-Dox
T1 chain: XLAX

Suc-Leu-Ala-Gly-Dox = target: T2, Suc-Leu-Ala-Gly-Dox
T2 chain: XAX

B1: human CD10 (protein)
chain: GKSESQMDITDINTPKPKKKQRWTPLEISLSVLVLLLTIIAVTMIALYATYDDGICKSSDCIKSAARLIQNMDATTEPCTDFFKYACGGWLKRNVIPETSSRYGNFDILRDELEVVLKDVLQEPKTEDIVAVQKAKALYRSCINESAIDSRGGEPLLKLLPDIYGWPVATENWEQKYGASWTAEKAIAQLNSKYGKKVLINLFVGTDDKNSVNHVIHIDQPRLGLPSRDYYECTGIYKEACTAYVDFMISVARLIRQEERLPIDENQLALEMNKVMELEKEIANATAKPEDRNDPMLLYNKMTLAQIQNNFSLEINGKPFSWLNFTNEIMSTVNISITNEEDVVVYAPEYLTKLKPILTKYSARDLQNLMSWRFIMDLVSSLSRTYKESRNAFRKALYGTTSETATWRRCANYVNGNMENAVGRLYVEAAFAGESKHVVEDLIAQIREVFIQTLDDLTWMDAETKKRAEEKALAIKERIGYPDDIVSNDNKLNNEYLELNYKEDEYFENIIQNLKFSQSKQLKKLREKVDKDEWISGAAVVNAFYSSGRNQIVFPAGILQPPFFSAQQSNSLNYGGIGMVIGHEITHGFDDNGRNFNKDGDLVDWWTQQSASNFKEQSQCMVYQYGNFSWDLAGGQHLNGINTLGENIADNGGLGQAYRAYQNYIKKNGEEKLLPGLDLNHKQLFFLNFAQVWCGTYRPEYAVNSIKTDVHSPGNFRIIGTLQNSAEFSEAFHCRKNSYMNPEKKCRVW
Percent Conversion/Hour to Leu-Dox, CD10 transfected CHO Clone 8 (Percent Conversion/Hour) (Suc-βAla-Leu-Ala-Leu-Dox): 3
conversion rate to Leu-Dox, CD10 transfected CHO Clone 8 (Suc-βAla-Leu-Ala-Leu-Dox): 0.3 mM/h
Percent Conversion/Hour to Gly-Dox, CD10 transfected CHO Clone 8 (Percent Conversion/Hour) (Suc-Leu-Ala-Gly-Dox): 0.61
conversion rate to Gly-Dox, CD10 transfected CHO Clone 8 (Suc-Leu-Ala-Gly-Dox): 0.06 mM/h
